Results as given in patent US20230242922.

Experiments:
Experiment in all cases: cell_activity
[1] = tested on: T1, AN197 TALEN pair (synthetic construct); conditions: primary T cells, GCD
T1 sequence: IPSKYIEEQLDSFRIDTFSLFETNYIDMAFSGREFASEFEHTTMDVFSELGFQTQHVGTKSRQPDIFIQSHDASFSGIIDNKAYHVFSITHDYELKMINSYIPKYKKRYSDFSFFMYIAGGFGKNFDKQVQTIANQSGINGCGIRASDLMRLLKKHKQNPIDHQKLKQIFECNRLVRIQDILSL

[2] = tested on: T2, AN197 TALEN, purified, mPEG-5K-SH PEGylated (synthetic construct); conditions: HEK293FT
T2 sequence: T1 sequence

[3] = molecular target: FokI TALEN pair (Flavobacterium okeanokoites) (UniProt P14870); conditions: by Sanger sequencing
Chain of UniProt P14870 (P14870 384-579): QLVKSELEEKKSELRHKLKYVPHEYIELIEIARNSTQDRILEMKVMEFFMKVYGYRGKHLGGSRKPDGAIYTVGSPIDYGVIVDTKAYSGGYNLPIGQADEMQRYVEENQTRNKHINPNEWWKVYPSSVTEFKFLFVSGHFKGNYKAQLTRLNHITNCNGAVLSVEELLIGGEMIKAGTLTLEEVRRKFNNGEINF

Substance | activity [1] | activity [2] | activity [3]
AAVS1 locus TALEN target | > 80 % editing | < 75 % editing | 100 % editing
LAG3 target | > 80 % editing | – | –
TIM3 target | > 80 % editing | – | –
PD-1 target | > 80 % editing | – | –
B2M target | > 80 % editing | – | –
